From doi:10.1101/2022.05.31.494220
Numbering of substitutions follows the chain as printed. In names and notes the source's numbering stands.

B1: HIM-3 (wildtype) (natural protein)
chain: ATKEQIVEHRESEIPIASQWKATFPVDLEIEKNSEMFALRYIKCASAFILDRRGILDEKCFKTRTIDKLLVTAFQSSVPAAKRVSSTFDGLRDAIQQGYLREFAIVFYKKPNEEDINEVFAFRFAYGDEGEIFVSLNNGIDTNESSQELLQAKFVDTDNTKQMFASTIKKLHRCIKKMEPLPQGSDASFRVSYTEKAPKDYTPEGYLLSPMFYTLNQDIRKASIGIVCGGHHKIQMLAASQYLKQDFDLDKTTTLNPNMSIMANQSKRKGRISRDSPYGLSQGITKKNKD
B2: HIM-3^R93Y (natural protein)
chain: B1 chain with R92Y

Target: peptide encoding HTP-3 closure motif #4 (C. elegans)
Test: fluorescence polarisation

Binder | Kd [nM]
B1 | 220
B2 | 690
